The text below walks through data of patent US20220242936A1 (CHANGCHUN GENESCIENCE PHARMACEUTICAL, published 2022).

Assay [1] deals with Aβ1-42 polypeptide (human). Nature of the assay: cell-based or functional assay.
Assay [2] has as its target T1, biotinylated Aβ1-16 polypeptide (also: biotinylated (site not given here)).
T1 construct: also called Aβ1-16 (N-terminal peptide fragment)
T1 peptide: DAEFRHDSGYEVHHQK
Nature of the assay: ELISA, biotinylated peptide on streptavidin plate. How it is done: (§1) Detection: After stopping the reaction, the microtiter plate was immediately placed into a microplate reader, the OD value was measured at 450 nm, and the original data was stored.
(§2) Data processing: The raw data were input into the software SoftMax Pro 6.2.1 for data processing.
(In an ELISA, binding on a coated surface is turned into a signal by an enzyme label.)

For assay [3], the target named is T2, biotinylated Aβ14-29 polypeptide (biotinylated (site not stated)).
T2 construct: also called Aβ14-29 (middle peptide fragment)
Nature of the assay: ELISA, biotinylated peptide on streptavidin plate. How it is done: as §1, §2

In assay [4] the target is T3, biotinylated Aβ1-42 polypeptide (human, biotinylated (site not stated)).
T3 construct: also called Full length Aβ1-42
T3 sequence (peptide, as listed by the source): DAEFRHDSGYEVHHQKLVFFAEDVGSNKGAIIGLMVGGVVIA
Nature of the assay: ELISA, hybridoma supernatant on biotinylated peptide captured by streptavidin. How it is done: as §1, §2

Assay [5] concerns the target T1, biotinylated Aβ1-16 polypeptide. The description is as above. How it is done:
as §1, §2

Assay [6] deals with T2, biotinylated Aβ14-29 polypeptide. The assay is described as above. How it is done:
as §1, §2

The target of assay [7] is T4, Aβ1-42 polypeptide (human).
T4 construct: Synthetic peptide; also called Aβ1-42 monomer; Aβ monomer
T4 sequence (peptide, as listed by the source): as above
The assay is described as follows: ELISA EC50 on Aβ42 monomer, 2 ml transient transfection; table note: '-' means no combination; expression 7.72 mg/L.

In assay [8] the target is T4, Aβ1-42 polypeptide. Nature of the assay: ELISA EC50 on Aβ42 monomer, 2 ml transient transfection; table note: '-' means no combination; expression 61 mg/L.
Assay [9] deals with T4, Aβ1-42 polypeptide. Nature of the assay: ELISA EC50 on Aβ42 monomer, 2 ml transient transfection; table note: '-' means no combination; expression 68.2 mg/L.
The target of assay [10] is T4, Aβ1-42 polypeptide. The assay is described as follows: ELISA EC50 on Aβ42 monomer, 2 ml transient transfection; table note: '-' means no combination; expression 68.4 mg/L.
The target of assay [11] is T4, Aβ1-42 polypeptide. Nature of the assay: ELISA EC50 on Aβ42 monomer, 2 ml transient transfection; table note: '-' means no combination; expression 6.14 mg/L.
For assay [12], the target named is T4, Aβ1-42 polypeptide. The assay is described as follows: ELISA EC50 on Aβ42 monomer, 2 ml transient transfection; table note: '-' means no combination; expression 32.1 mg/L.
The target in assay [13] is T4, Aβ1-42 polypeptide. The assay is described as follows: ELISA EC50 on Aβ42 monomer, 2 ml transient transfection; table note: '-' means no combination; expression 60 mg/L.

Changes are numbered by the printed parent chain. Where no end group is shown, it is not given here.

B1: 066-4.26.14 (antibody, V domains shown)
VH: EVKLVESGGGLVKPGGSLKLSCAASGFTFRSYAMSWVRQTPEKRLEWVASISTTSNTYYPDSVKGRFTTSRDNARNIVYLQMSSLRSDDTAMYYCGRGVITNQAWFAYWGQGTLVTVSA
VL: DIVLTQSPATLSVTPGDSVSLSCRASQSISNNLHWYQQKSHESPRLLIKYASQSISGIPSRFSGSGSGTDFTLSVNNVGTEDFGMYFCQQSNSWPLTFGAGTKLELK
notes: Murine hybridoma antibody
Consider B1, for which, in the assay with Aβ1-42 polypeptide [1], the “relative fluorescence intensity (ThT, Aβ polymerization; PBS group = 1.0)” value is 0.46 relative to PBS group; the “relative fluorescence intensity (ThT, Aβ polymerization; hIgG = 1.00)” value was 0.7 relative to hIgG; the “relative value of LDH release (SHSY5Y cells with Aβ; Vehicle group = 1.0)” value is 1.2 relative to Vehicle group; the “relative value of LDH release (SHSY5Y cells with Aβ; hIgG = 1.00)” value is 1.2 relative to hIgG. The binding result in assay [2] is “no binding”. The binding result in assay [3] is reported as “no binding”. In addition, the “OD value at 450 nm” value in [4] was determined as 1.93 OD. Further, the “OD value at 450 nm” value in [5] turned out to be 0.0602 OD. The “OD value at 450 nm” value in [6] worked out at 0.0674 OD.

B2: 066-4.26.14H2L4 (antibody, human IgG1, kappa, V domains shown)
VH: B1 VH with K3Q, K19R, R75K, I77S, S87A, D88E, M92V, L114T, A119S
VL: EIVLTQSPGTLSLSPGERATLSCRASQSISNNLHWYQQKPGQAPRLLIKYASQSISGIPDRFSGSGSGTDFTLTISRLEPEDFAVYYCQQSNSWPLTFGGGTKVEIKR
notes: Humanized full-length antibody; human IgG1 heavy constant and human kappa light constant (vectors pGS003-hIgG1CH, pGS003-hIgKCL)
Regarding B2, the binding result in the assay with Aβ1-42 polypeptide [7] is “no binding”.

B3: 066-4.26.14H1L2 (antibody, human IgG1, V domains shown)
VH: EVQLVESGGGLVKPGGSLRLSCAASGFTFRSYAMSWVRQAPGKGLEWVASISTTSNTYYPDSVKGRFTTSRDNAKNSLYLQMNSLRAEDTAVYYCGRGVITNQAWFAYWGQGTLVTVSS
VL: B2 VL with E1D, G9A, L13V, D60A, R77S, E79Q, P80S, Y87F
notes: as for B2
B3: the binding result in the assay with Aβ1-42 polypeptide [8] is “no binding”.

B4: 066-4.26.14H1L3 (antibody, human IgG1, V domains shown)
VH: B3 VH
VL: DIVLTQSPDFQSVTPKEKVTISCRASQSISNNLHWYQQKPDQSPKLLIKYASQSISGIPSRFSGSGSGTDFTLTINSLEAEDAAAYFCQQSNSWPLTFGPGTKVEIKR
notes: as for B2
For the molecule B4, the binding result in the assay with Aβ1-42 polypeptide [9] was “no binding”.

B5: 066-4.26.14H1L5 (antibody, human IgG1, V domains shown)
VH: B3 VH
VL: B4 VL with D1E, S22T, I58V, A85T, F87Y, P100Q
notes: as for B2
As for B5, the binding result in the assay with Aβ1-42 polypeptide [10] was “no binding”.

B6: 066-4.26.14H2L5 (antibody, human IgG1, kappa, V domains shown)
VH: B3 VH with A40T, G42E, G44R, L78V, N83S, L114T
VL: B4 VL with D1E, S22T, I58V, A85T, F87Y, P100Q
notes: as for B2
B6: the binding result with Aβ1-42 polypeptide [11] is listed as “no binding”.

B7: 066-4.26.14H1L4 (antibody, human IgG1, V domains shown)
VH: B3 VH
VL: B2 VL
notes: as for B2
Take B7: in the assay with Aβ1-42 polypeptide [12], the binding result was “no binding”.

B8: 066-4.26.14H1L1 (antibody, human IgG1, V domains shown)
VH: B3 VH
VL: DIVLTQSPATLSVSPGERVTLSCRASQSISNNLHWYQQKSGQAPRLLIKYASQSISGIPSRFSGSGSGTDFTLTISSLQSEDFAVYFCQQSNSWPLTFGGGTQVEIKR
notes: as for B2
With B8, the binding result in the assay with Aβ1-42 polypeptide [13] is reported as “no binding”.
